The values below come from patent US5482996A, “Protein-containing polymers and a method of synthesis of protein-containing polymers in organic solvents” (University of Pittsburgh, priority 1993, dated 1996).

Substrate in series [1]: C[C@H](NC(=O)CCC(=O)O)C(=O)N[C@@H](C)C(=O)N1CCC[C@H]1C(=O)N[C@@H](Cc1ccccc1)C(=O)Nc1ccc([N+](=O)[O-])cc1
The series can be described thus: Hydrolysis of peptide p-nitroanilide substrate, kinetic constants. The conditions noted are these: other: Tris-HCl buffer (0.1M, pH 8.6). In kind it is biochemical. On the procedure: (§1) Kinetic studies of the modified protein were performed using substrate (N-succinyl-L-alanyl-L-alanyl-L-prolyl-L-phenylalanyl p-nitroanilide) in 0.1M Tris-HCl buffer, pH 8.6. The purified HPLC fractions (three total) were tested for activity while increasing the substrate concentrations in equal increments. Substrate concentration versus rate was plotted to determine Vmax and Km using non-linear regression analysis. A standard of pure subtilisin was analyzed as a control.
As set forth above, the activity of the modified enzymes was assessed with the artificial peptide substrate succinyl-L-alanyl-L-alanyl-L-prolyl-L-phenylalanyl p-nitroanilide. A sample of 30 mg modified protein powder was dissolved in tetrahydrofuran, and filtered with a solvent resistant 0.22 μm filter in order to remove the insoluble native protein. The solvent was evaporated and, as mentioned above, values for Vmax and Km were determined.

Substrate in series [2]: C[C@H](NC(=O)CCC(=O)O)C(=O)N[C@@H](C)C(=O)N1CCC[C@H]1C(=O)N[C@@H](Cc1ccccc1)C(=O)Nc1ccc([N+](=O)[O-])cc1
The series is described as above. In kind it is biochemical. The conditions noted are these: other: Tris-HCl buffer (0.1M, pH 8.6). Here is the method: as §1
Before reacting PEG-subtilisin with other materials it is necessary to fully characterize the activity and stability of the "bio-monomer". Using solubility, IMAC, and HPLC the modified protein was separated into predominantly singly or doubly modified protein fractions. […] Thus, the activities and stabilities noted are average properties for the sample being studied. For comparison to the native protein, unmodified protein was purified from the modification reaction mixture and characterized to some degree.
As set forth above, the activity of the modified enzymes was assessed with the artificial peptide substrate succinyl-L-alanyl-L-alanyl-L-prolyl-L-phenylalanyl p-nitroanilide. […] The solvent was evaporated and, as mentioned above, values for Vmax and Km were determined.
This is another data set of the same source.

B1: Subtilisin Carlsberg, native (pure subtilisin standard) (Bacillus licheniformis) (protein)
chain: AQTVPYGIPLIKADKVQAQGFKGANVKVAVLDTGIQASHPDLNVVGGASFVAGEAYNTDGNGHGTHVAGTVAALDNTTGVLGVAPSVSLYAVKVLNSSGSGSYSGIVSGIEWATTNGMDVINMSLGGASGSTAMKQAVDNAYAKGVVVVAAAGNSGSSGNTNTIGYPAKYDSVIAVGAVDSNSNRASFSSVGAELEVMAPGAGVYSTYPTNTYATLNGTSMASPHVAGAAALILSKHPNLSASQVRNRLSSTATYLGSSFYYGKGLINVEAAAQ
notes: purchased Sigma Chemical Co
For the protein B1, the Km (commonly the concentration of substrate that gives half-maximal velocity) in series [1] was found to be 120 µM.

B2: Subtilisin Carlsberg, unmodified fraction purified from the PEG modification reaction mixture (Bacillus licheniformis) (protein)
chain: B1 chain
notes: purchased Sigma Chemical Co
For B2, the Km in series [2] was 170 µM.
